Patent US20100261660A1 (published 2010)
Positions count from the first letter of the chain named.

B1: Round 2 CD28C2-4 (ligand)
chain: GISQVTKSVKEMAALSCDYNISIDELARMRIYWQKDQQMVLSIISGQVEVWPEYKNRTITDMNDNPRIVILALRLSDSGTYTCVIQKPVLKGAYKPEHLASVRLMIRADFPVPTINDLGNPSPNIRRLICSTSGGFPRPHLYWLENGEELNATNTTLSQDPETKLYMISSELDFNMTSNHSFLCLVKYGDLTVSQTFYWQESKPTPSANQHLTWTIIIPVSAFGISVIIAVILTCLTCRNAAIRRQRRENEVEMQSCSQSP
B2: Round 2 CD28H6-6 (ligand)
chain: ITPKSVTKRVKETVMLSCDYSTSTEELTSLRIYWQKDSKMVLAILPGKVQVWPEYKNRTITDMNDNPRIVILALRLSDSGTYTCVIQKPVLKGAYKLEHLASVRLMIRADFPVPTINDLGNPSPNIRRLICSGFPRPHLYWLENGEELNATNTTVSQDPGTELYMISSELDFNVTNNHSIVCLIKYGELSVSQIFPWSKPKQEPPIDQLPFWVIIPVSGALVLTAVVLYCLACRHVARWKRTRRNEETVGTERLSPIYLGSAQSSG
B3: Round 2 CD28F11-8 (ligand)
chain: ITPKSVTKRVKETVMLSCDYNTSTEELTSLRIYWQKDSKMVLAILPGKVQVWPEYKNRTITDMNDNPRIVILALRLSDSGTYTCVIQKPVLKGAYKLEHLTSVRLMIRADFPVPTINDLGNPSPNIRRLICSTSGGFPRPHLYWLENGEELNATNTTLSQDPETKLYMISSELDFNMTSNLCLVKYGDLTVSQTFYWQESKPTPSANQHLTWTIIIPVSAFGISVIIAVILTCLTCRNAAIRRQRRENEVEMQSCSQSP
B4: Round 2 CD28A2-5 (ligand)
chain: ITPKSVTKRVKETVMLSCDYNTSTEELTSLRIYWQKDSKMVLAILPGKVQVWPEYKNRTITDMNDNPRIVILALRLSDSGTYTCVIQKPDLKGAYKLEHLASVRLMIRADFPVPSITDIGHPAPNVKRIRCSASGGFPEPRLAWMEDGEELNAVNTTVDQDLDTELYSVSSELDFNMTSNHSFLCLVKYGDLTVSQTFYWQESKPTPSANQHLTWTIIIPVSAFGISVIIAVILTCLTCRNAAIRRQRRENEGKCKVLSVSIGTKLKFNR
B5: Round 2 CD28D11-1 (ligand)
chain: ITPKSVTKRVKETVMLSCDYNTSTEELTSLRIYWQKDSKMVLAILPGKVQVWPEYKNRTITDMNDNPRIVILALRLSDSGTYTCVVQKNENGSFRREHLTSVTLSIRADFPVPSITDIGHPAPNVKRIRCSASGDFPEPRLAWMEDGEELNAVNTTVDQDLDTELYSVSSELDFNVTNNHSIVCLIKYGELSVSQIFPWSKPKQEPPIDQLPFWVIILVSGALVLTAVVLYCLACRHVARWKRTRRNEETVGTERLSPIYLGSAQSSG
B6: Round 2 CD28B4-5* (ligand)
chain: SGITPKSVTKRVKETVMLSCDYNTSTEELTSLRIYWQKDSKMVLAILPGKVQVWPEYKNRTITDMNDNPRIVILALRLSDKGTYTCVVQKPDLKGAYKLEHLASVRLMIRADFPVPSITDIGHPAPNVKRIRCSASGGFPEPRLAWMEDGEELNAVNTTVDQDLDTELYSVSSELDFNVTNNHSIVCLIKYGELSVSQIFPWSKPKQEPPIDQLPFWVIIPVSGALVLTAVVLYCLACRHVARWKRTRRNEETVGTERLSPIYLGSAQSSG
B7: Round 2 CD28D12-5 (ligand)
chain: ITPKSVTKRVKETVMLSCDYSTSTEELTSLRIYWQKDSKMVLAILPGKVQVWPEYKNRTITDMNDNPRIVILALRLSDSGTYTCVIQKPVLKGAYKLEHLASVRLMIRADFPVPSITDIGHPAPNVKRIRCSASGDFPEPRLAWMEDGEELNAVNTTVLDTELYSVSSELDFNVTNNHSIVCLIKYGELSVSQIFPWSKPKQEPPIDQLPFWVIIPVSGALVLTAVVLYCLACRHVARWKRTRRNEETVGTERLSPIYLGSAQPSG
B8: Round 2 CD28C7-3 (ligand)
chain: ITPKSVTKRVKETVMLSCDYSTSTEELTSLRIYWQKDSKMVLAILPGKVQVWPEYKNRTITDMNDNPRIVILALRLSDSGTYTCVIQKPDLKGAYKLEHLTSVRLMIRADFPVPSITDIGHPAPNVKRIRCSASGDFPEPRLAWMEDGEELNAVNTTVDQDLDTELYSVSSELDFNVTNNHSIVCLIKYGELSVSQIFPWSKPKQEPPIDQLPFWVIIPVSGALVLTAVVLYCLACRHVARWKRTRRNEETVGTERLSPIYLGSAQSSG
B9: Round 2 CD28F10-2 (ligand)
chain: B8 chain with S21N
B10: Round 2 CD28G1-9 (ligand)
chain: B8 chain with S21N, D90V, D136G
B11: Round 2 CD28F12-5* (ligand)
chain: B8 chain with S21N, T101A
B12: Round 2 CD28E2-5* (ligand)
chain: TTPKSVTKRVKETVMLSCDYNTSTEELTSLRIYWQKDSKMVLAILPGKVQVWPEYKNRTITDMNDNPRIVILALRPSDSGTYTCVIQKPVLKGAYKLEHLASVRLMIRADFPVPTINDLGNPSPNIRRLICSTSGGFPRPHLYWLENGEELNATNTTLSQDPETKLYMISSELDFNMTSNHSFLCLVKYGDLTVSQTFYWQESKPTPSANQHLTWTIIIPVSAFGISVIIAVILTCLTCRNAAIRRQRRENEVEMQSCSQSP
B13: Round 2 CD28E8-6 (ligand)
chain: B12 chain with T1I, P76L, A101T, L158V, M177T
B14: Round 2 CD28F3-1 (ligand)
chain: B12 chain with T1I, P76L, V90D, A101T, E149K
B15: Round 2 CD28B6-6 (ligand)
chain: ITPKSVTKRVKETVMLSCDYSTSTEELTSLRIYWQKDSKMVLAILPGKVQVWPEYKNRTITDMNDNPRIVILALRLSDKGTYTCVIQKPVLKGAYKLEHLTSVTLSIRADFPVPSITDIGHPAPNVKRIRCSASGGFPEPRLAWMEDGEELNAVNTTVDQDLDTELYSVSSELDFNATNNHSIVCLIKYGELSVSQIFPWSKPKQEPPIDQLPFWVIVPVSGALVLTAVVLYCLACRHVAR
B16: Round 2 CD28D2-3 (ligand)
chain: ITPKSVTKRVKETVMLSCDYNTSTEELTSLRIYWQKDSKMVLAILPGKVQVWPEYKNRTITDMNDNPRIVIQALRLSDSGTYTCVIQKPVLKGAYKLEHLASVRLMIRADFPVPTDLGNPSPNIRRLICSTSGGFPRPHLYWLENGEELNATNTTVSQDPGTELYMISSELDFNVTNNHSIVCLIKYGELSVSQIFPWSKPKQEPPIDQLPFWVIIPVSGALVLTAVVLYCLACRHVARWKRTRRNEETVGTERLSPIYLGSAQSSG

Target: T1, Soluble CD28-Ig (extracellular domain of human CD28 fused to the Fc portion of human IgG1) (human, UniProt P10747 19-152, biotin-conjugated (NHS-biotin) in the FACS binding assays)
T1 construct: extracellular domain; bought from R&D Systems; also called sCD28-Ig; CD28-Ig Fc; not shown: Fc portion of human IgG1
Experiment: competitive FACS on transfected cells, biotin-sCD28-Ig with FITC-sCTLA-4-Ig; grade 0-2 of CD28/CTLA-4 ratio vs WT hB7-1

Row | Binder | Binding Score
1 | B1 | 1
2 | B2 | 1
3 | B3 | 0
4 | B4 | 0
5 | B5 | 2
6 | B6 | 0
7 | B7 | 2
8 | B8 | 1
9 | B9 | 1
10 | B10 | 1
11 | B11 | 1
12 | B12 | 0
13 | B13 | 0
14 | B14 | 0
15 | B15 | 1
16 | B16 | 1
